Measured values from US20240352102A1 (UNITED STATES GOVERNMENT AS REPRESENTED BY THE DEPARTMENT …, published 2024).

Tests used:
Peptide_052 = biological target: T1, Peptide_052; test: peptide microarray
T1 peptide: KSPSSAKSRLQTAPV

Peptide_063 = biological target: T2, Peptide_063; test: peptide microarray
T2 peptide: INKKLDLSNVQSKCG

Peptide_040 = biological target: T3, Peptide_040; test: peptide microarray
T3 peptide: GEPPKSGDRSGYSSP

Peptide_073 = biological target: T4, Peptide_073; test: peptide microarray
T4 peptide: VTSKCGSLGNIHHKP

Peptide_071 = biological target: T5, Peptide_071; test: peptide microarray
T5 peptide: YKPVDLSKVTSKCGS

Peptide_055 = biological target: T6, Peptide_055; test: peptide microarray
T6 peptide: APVPMPDLKNVKSKI

Peptide_053 = biological target: T7, Peptide_053; test: peptide microarray
T7 peptide: SAKSRLQTAPVPMPD

[1] = biological target: T8, recombinant human tau incubated with poly(A) RNA (human, UniProt P10636-7 1-412, limits assumed); test: dot blot, 20 ng tau, 8 replicates, reference heparin incubated tau
T8 construct: Oligomeric complex with RNA; also called tau/RNA complexes; TRCs
T8 sequence (P10636 other isoform, or with tags, fused parts or gaps limits assumed): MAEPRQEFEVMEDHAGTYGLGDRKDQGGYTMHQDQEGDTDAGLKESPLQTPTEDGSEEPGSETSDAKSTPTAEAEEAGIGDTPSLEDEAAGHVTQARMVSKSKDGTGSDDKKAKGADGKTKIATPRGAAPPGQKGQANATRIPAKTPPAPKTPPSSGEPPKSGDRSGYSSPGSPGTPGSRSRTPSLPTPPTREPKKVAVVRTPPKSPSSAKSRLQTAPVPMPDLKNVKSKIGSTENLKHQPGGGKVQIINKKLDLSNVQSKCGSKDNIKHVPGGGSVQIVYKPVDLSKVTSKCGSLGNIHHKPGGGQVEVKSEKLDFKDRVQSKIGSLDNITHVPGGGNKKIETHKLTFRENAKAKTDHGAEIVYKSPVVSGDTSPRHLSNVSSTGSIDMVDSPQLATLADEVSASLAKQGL
Experimental: To control for other polyanions inducing the TRC35+ tau conformation, recombinant protein was purified from E. coli overexpressing human tau. Twenty ng of purified tau proteins was incubated with poly(A) RNA or Heparin as shown in representative blots above. In total, 8 replicate samples were dot blotted with mAb TRC35 (FIG. 11A) and SP70 total tau mAb (FIG. 11B) as previously described for FIG. 1.

- binding result (Peptide_052): no binding (tested: 1 ug/ml)
- binding result (Peptide_063): no binding (tested: 1 ug/ml)
- binding result (Peptide_040): no binding (tested: 1 ug/ml)
- binding result (Peptide_073): no binding (tested: 1 ug/ml)
- binding result (Peptide_071): no binding (tested: 1 ug/ml)
- binding result (Peptide_055): no binding (tested: 1 ug/ml)
- binding result (Peptide_053): no binding (tested: 1 ug/ml)
- fold TRC35 signal normalized to SP70, relative to heparin [1]: ~2 fold
B1: mAb TRC35 (antibody, V domains shown)
VH: QVQLQQPGTELVKPGASVKLSCKASGYTFTSYWLQWVKQRPGQGLEWIGEIDPSDSYTNYNQKFKGKATLTVDTSSSTAYMQLSSLTSEDSAVYYCATLTGSWGQGTTLAVSS
VL: DVLLTQTPLSLPVSLGDQASISCRASQSIVDSNGNTFLEWYLQKSGQSPKVLIYKVSNRFSGVPDRFSGRGSGTDFTLKISRVEAEDLGVYYCFQGSHVPYTFGGGTKLEIK
notes: Mouse hybridoma monoclonal antibody raised in tau knockout mice against tau/poly(A) RNA complexes; IgG1 isotype, kappa light chain; also called TRC35 monoclonal antibody; hybridoma clone #35
